Data on 30 molecules can be found in paper PMC11446282.

Where a chain is given by its changes, count along the chain named.

This test deals with PP2A-B55α. Description: Single alanine mutational scan, YFP-tagged interactors immunoprecipitated from HeLa cells, Western blot. The class given is binding, human. For orientation: In western blotting, separated proteins are transferred to a membrane and probed.
Where [1] appears, read: single alanine mutant of YFP-tagged EYA3.
Setting [2] is: single alanine mutant of YFP-tagged AMOTL2.
Where [3] appears, read: single alanine mutant of YFP-tagged ZDS1.

B1: EYA3 T88: EYA3, T88 to alanine (protein, UniProt Q99504 1-573, looked up, variant T88A)
Protein phosphatase EYA3: MEEEQDLPEQPVKKAKMQESGEQTISQVSNPDVSDQKPETSSLASNLPMSEEIMTCTDYIPRSSNDYTSQMYSAKPYAHILSVPVSEAAYPGQTQYQTLQQTQPYAVYPQATQTYGLPPFGALWPGMKPESGLIQTPSPSQHSVLTCTTGLTTSQPSPAHYSYPIQASSTNASLISTSSTIANIPAAAVASISNQDYPTYTILGQNQYQACYPSSSFGVTGQTNSDAESTTLAATTYQSEKPSVMAPAPAAQRLSSGDPSTSPSLSQTTPSKDTDDQSRKNMTSKNRGKRKADATSSQDSELERVFLWDLDETIIIFHSLLTGSYAQKYGKDPTVVIGSGLTMEEMIFEVADTHLFFNDLEECDQVHVEDVASDDNGQDLSNYSFSTDGFSGSGGSGSHGSSVGVQGGVDWMRKLAFRYRKVREIYDKHKSNVGGLLSPQRKEALQRLRAEIEVLTDSWLGTALKSLLLIQSRKNCVNVLITTTQLVPALAKVLLYGLGEIFPIENIYSATKIGKESCFERIVSRFGKKVTYVVIGDGRDEEIAAKQHNMPFWRITNHGDLVSLHQALELDFL
B1 returned an Experimental % binding under setting [1] of 1%.

B2: EYA3 L81: EYA3, L81 to alanine (protein, UniProt Q99504 1-573, looked up, variant L81A)
Protein phosphatase EYA3: B1 Protein phosphatase EYA3 with L81A, A88T
B2: the Experimental % binding under setting [1] was 20%.

B3: EYA3 Y77: EYA3, Y77 to alanine (protein, UniProt Q99504 1-573, looked up, variant Y77A)
Protein phosphatase EYA3: B1 Protein phosphatase EYA3 with Y77A, A88T
Consider B3, for which the Experimental % binding under setting [1] was determined as 20%.

B4: EYA3 Y90: EYA3, Y90 to alanine (protein, UniProt Q99504 1-573, looked up, variant Y90A)
Protein phosphatase EYA3: B1 Protein phosphatase EYA3 with A88T, Y90A
In the case of B4, the Experimental % binding under setting [1] was 5%.

B5: EYA3 K75: EYA3, K75 to alanine (protein, UniProt Q99504 1-573, looked up, variant K75A)
Protein phosphatase EYA3: B1 Protein phosphatase EYA3 with K75A, A88T
Molecule B5 displayed an Experimental % binding under setting [1] of 45%.

B6: EYA3 H79: EYA3, H79 to alanine (protein, UniProt Q99504 1-573, looked up, variant H79A)
Protein phosphatase EYA3: B1 Protein phosphatase EYA3 with H79A, A88T
Under setting [1], B6 returned an Experimental % binding of 10%.

B7: EYA3 P91: EYA3, P91 to alanine (protein, UniProt Q99504 1-573, looked up, variant P91A)
Protein phosphatase EYA3: B1 Protein phosphatase EYA3 with A88T, P91A
B7 showed an Experimental % binding under setting [1] of 5%.

B8: EYA3 I80: EYA3, I80 to alanine (protein, UniProt Q99504 1-573, looked up, variant I80A)
Protein phosphatase EYA3: B1 Protein phosphatase EYA3 with I80A, A88T
For the molecule B8, under setting [1], the Experimental % binding was found to be 5%.

B9: AMOTL2 Q17: AMOTL2, Q17 to alanine (protein, UniProt Q9Y2J4 1-779, looked up, variant Q17A)
Angiomotin-like protein 2: MRTLEDSSGTVLHRLIAEQLRYGNLTETRTLLAIQQQALRGGAGTGGTGSPQASLEILAPEDSQVLQQATRQEPQGQEHQGGENHLAENTLYRLCPQPSKGEELPTYEEAKAHSQYYAAQQAGTRPHAGDRDPRGAPGGSRRQDEALRELRHGHVRSLSERLLQLSLERNGARAPSHMSSSHSFPQLARNQQGPPLRGPPAEGPESRGPPPQYPHVVLAHETTTAVTDPRYRARGSPHFQHAEVRILQAQVPPVFLQQQQQYQYLQQSQEHPPPPHPAALGHGPLSSLSPPAVEGPVSAQASSATSGSAHLAQMEAVLRENARLQRDNERLQRELESSAEKAGRIEKLESEIQRLSEAHESLTRASSKREALEKTMRNKMDSEMRRLQDFNRDLRERLESANRRLASKTQEAQAGSQDMVAKLLAQSYEQQQEQEKLEREMALLRGAIEDQRRRAELLEQALGNAQGRAARAEEELRKKQAYVEKVERLQQALGQLQAACEKREQLELRLRTRLEQELKALRAQQRQAGAPGGSSGSGGSPELSALRLSEQLREKEEQILALEADMTKWEQKYLEERAMRQFAMDAAATAAAQRDTTLIRHSPQPSPSSSFNEGLLTGGHRHQEMESRLKVLHAQILEKDAVIKVLQQRSRRDPGKAIQGSLRPAKSVPSVFAAAAAGTQGWQGLSSSERQTADAPARLTTDRAPTEEPVVTAPPAAHAKHGSRDGSTQTEGPPDSTSTCLPPEPDSLLGCSSSQRAASLDSVATSRVQDLSDMVEILI
As for B9, the Experimental % binding under setting [2] is recorded as 143%.

B10: AMOTL2 T28: AMOTL2, T28 to alanine (protein, UniProt Q9Y2J4 1-779, looked up, variant T28A)
Angiomotin-like protein 2: B9 Angiomotin-like protein 2 with A17Q, T28A
For B10, the Experimental % binding under setting [2] came out at 4%.

B11: AMOTL2 E27: AMOTL2, E27 to alanine (protein, UniProt Q9Y2J4 1-779, looked up, variant E27A)
Angiomotin-like protein 2: B9 Angiomotin-like protein 2 with A17Q, E27A
Under setting [2], B11 gave an Experimental % binding of 165%.

B12: AMOTL2 V11: AMOTL2, V11 to alanine (protein, UniProt Q9Y2J4 1-779, looked up, variant V11A)
Angiomotin-like protein 2: B9 Angiomotin-like protein 2 with V11A, A17Q
For the molecule B12, the Experimental % binding under setting [2] amounted to 114%.

B13: AMOTL2 T10: AMOTL2, T10 to alanine (protein, UniProt Q9Y2J4 1-779, looked up, variant T10A)
Angiomotin-like protein 2: B9 Angiomotin-like protein 2 with T10A, A17Q
For B13, the Experimental % binding under setting [2] stood at 104%.

B14: AMOTL2 R21: AMOTL2, R21 to alanine (protein, UniProt Q9Y2J4 1-779, looked up, variant R21A)
Angiomotin-like protein 2: B9 Angiomotin-like protein 2 with A17Q, R21A
As to B14, the Experimental % binding under setting [2] stood at 60%.

B15: AMOTL2 I34: AMOTL2, I34 to alanine (protein, UniProt Q9Y2J4 1-779, looked up, variant I34A)
Angiomotin-like protein 2: B9 Angiomotin-like protein 2 with A17Q, I34A
Turning to B15, the Experimental % binding under setting [2] turned out to be 15%.

B16: AMOTL2 H13: AMOTL2, H13 to alanine (protein, UniProt Q9Y2J4 1-779, looked up, variant H13A)
Angiomotin-like protein 2: B9 Angiomotin-like protein 2 with H13A, A17Q
B16 showed an Experimental % binding under setting [2] of 110%.

B17: AMOTL2 L31: AMOTL2, L31 to alanine (protein, UniProt Q9Y2J4 1-779, looked up, variant L31A)
Angiomotin-like protein 2: B9 Angiomotin-like protein 2 with A17Q, L31A
As to B17, the Experimental % binding under setting [2] is recorded as 115%.

B18: AMOTL2 Y22: AMOTL2, Y22 to alanine (protein, UniProt Q9Y2J4 1-779, looked up, variant Y22A)
Angiomotin-like protein 2: B9 Angiomotin-like protein 2 with A17Q, Y22A
For the molecule B18, the Experimental % binding under setting [2] was 25%.

B19: AMOTL2 T30: AMOTL2, T30 to alanine (protein, UniProt Q9Y2J4 1-779, looked up, variant T30A)
Angiomotin-like protein 2: B9 Angiomotin-like protein 2 with A17Q, T30A
With B19, the Experimental % binding under setting [2] turned out to be 85%.

B20: AMOTL2 Q37: AMOTL2, Q37 to alanine (protein, UniProt Q9Y2J4 1-779, looked up, variant Q37A)
Angiomotin-like protein 2: B9 Angiomotin-like protein 2 with A17Q, Q37A
As to B20, the Experimental % binding under setting [2] is on record as 44%.

B21: AMOTL2 Q19: AMOTL2, Q19 to alanine (protein, UniProt Q9Y2J4 1-779, looked up, variant Q19A)
Angiomotin-like protein 2: B9 Angiomotin-like protein 2 with A17Q, Q19A
B21 showed an Experimental % binding under setting [2] of 120%.

B22: AMOTL2 E18: AMOTL2, E18 to alanine (protein, UniProt Q9Y2J4 1-779, looked up, variant E18A)
Angiomotin-like protein 2: B9 Angiomotin-like protein 2 with A17Q, E18A
The molecule B22 showed an Experimental % binding under setting [2] of 133%.

B23: AMOTL2 Q36: AMOTL2, Q36 to alanine (protein, UniProt Q9Y2J4 1-779, looked up, variant Q36A)
Angiomotin-like protein 2: B9 Angiomotin-like protein 2 with A17Q, Q36A
Under setting [2], B23 came in with an Experimental % binding of 76%.

B24: AMOTL2 L32: AMOTL2, L32 to alanine (protein, UniProt Q9Y2J4 1-779, looked up, variant L32A)
Angiomotin-like protein 2: B9 Angiomotin-like protein 2 with A17Q, L32A
B24 returned an Experimental % binding under setting [2] of 118%.

B25: AMOTL2 L20: AMOTL2, L20 to alanine (protein, UniProt Q9Y2J4 1-779, looked up, variant L20A)
Angiomotin-like protein 2: B9 Angiomotin-like protein 2 with A17Q, L20A
Regarding B25, the Experimental % binding under setting [2] is given as 98%.

B26: AMOTL2 Q35: AMOTL2, Q35 to alanine (protein, UniProt Q9Y2J4 1-779, looked up, variant Q35A)
Angiomotin-like protein 2: B9 Angiomotin-like protein 2 with A17Q, Q35A
B26: the Experimental % binding under setting [2] came to 61%.

B27: AMOTL2 R29: AMOTL2, R29 to alanine (protein, UniProt Q9Y2J4 1-779, looked up, variant R29A)
Angiomotin-like protein 2: B9 Angiomotin-like protein 2 with A17Q, R29A
B27 displayed an Experimental % binding under setting [2] of 4%.

B28: AMOTL2 L12: AMOTL2, L12 to alanine (protein, UniProt Q9Y2J4 1-779, looked up, variant L12A)
Angiomotin-like protein 2: B9 Angiomotin-like protein 2 with L12A, A17Q
Molecule B28 had an Experimental % binding under setting [2] of 88%.

B29: ZDS1 S864: ZDS1, S864 to alanine (protein, UniProt P50111 1-915, looked up, variant S864A)
Protein ZDS1: MSNRDNESMLRTTSSDKAIASQRDKRKSEVLIAAQSLDNEIRSVKNLKRLSIGSMDLLIDPELDIKFGGESSGRRSWSGTTSSSASMPSDTTTVNNTRYSDPTPLENLHGRGNSGIESSNKTKQGNYLGIKKGVHSPSRKLNANVLKKNLLWVPANQHPNVKPDNFLELVQDTLQNIQLSDNGEDNDGNSNENNDIEDNGEDKESQSYENKENNTINLNRGLSRHGNASLIRRPSTLRRSYTEFDDNEDDDNKGDSASETVNKVEERISKIKERPVSLRDITEELTKISNSAGLTDNDAITLARTLSMAGSYSDKKDQPQPEGHYDEGDIGFSTSQANTLDDGEFASNMPINNTMTWPERSSLRRSRFNTYRIRSQEQEKEVEQSVDEMKNDDEERLKLTKNTIKVEIDPHKSPFRQQDEDSENMSSPGSIGDFQDIYNHYRQSSGEWEQEMGIEKEAEEVPVKVRNDTVEQDLELREGTTDMVKPSATDDNKETKRHRRRNGWTWLNNKMSREDDNEENQGDDENEENVDSQRMELDNSKKHYISLFNGGEKTEVSNKEEMNNSSTSTATSQTRQKIEKTFANLFRRKPHHKHDASSSPSSSPSSSPSIPNNDAVHVRVRKSKKLGNKSGREPVEPIVLRNRPRPHRHHHSRHGSQKISVKTLKDSQPQQQIPLQPQLEGAIEIEKKEESDSESLPQLQPAVSVSSTKSNSRDREEEEAKKKNKKRSNTTEISNQQHSKHVQKENTDEQKAQLQAPAQEQVQTSVPVQASAPVQNSAPVQTSAPVEASAQTQAPAAPPLKHTSILPPRKLTFADVKKPDKPNSPVQFTDSAFGFPLPLLTVSTVIMFDHRLPINVERAIYRLAHLKLSNSKRGLREQVLLSNFMYAYLNLVNHTLYMEQVAHDKEQQQQQQQQP
In turn, B29 displayed an Experimental % binding under setting [3] of 113%.

B30: ZDS1 H865: ZDS1, H865 to alanine (protein, UniProt P50111 1-915, looked up, variant H865A)
Protein ZDS1: B29 Protein ZDS1 with A864S, H865A
B30: under setting [3], the Experimental % binding turned out to be 75%.
